Test results from the supplement of paper PMC10126150.
± gives the standard deviation of the averaged measurements.

Tested on: ATP
Assay: switch fluorescence ratio, 500 uM ATP over buffer (Cy3 cluster intensity, sum of 5 cycles each) (fold (ratio)); higher = stronger signal-on switching upon ATP binding; sequences stand for … in TCGTCGGCAGCGTCAGATGTGTATAAGAGACAGTTTTTTTTTTTTTTTTTTTTTTTTT…TC
Conditions: aptamer strand: ATP DNA aptamer (quencher-CACCTGGGGGAGTATTGCGGAGGAAGG + anchor), 100 nM annealed; ATP concentration: 500 uM
Summary of the method: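 The quencher-labelled ATP aptamer, at 100 nM, was annealed to Cy3-labelled switching-strand clusters on a modified Illumina MiSeq flow-cell. The clusters were imaged in selection buffer, then after 15 min with 500 uM ATP at 22 °C, and this buffer/ATP cycle ran five times with NaOH stripping and re-annealing between runs. Per-cluster fluorescence ratios, summed target-cycle over summed buffer-cycle Cy3 intensity, were averaged per switch-domain sequence. Clusters outside 100-1000 RFU were excluded.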
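Further: ATP exposure 15 min at 22 °C before imaging.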

CTGGGGATTG was tested, and the switch fluorescence ratio was 1.01 ± 0.014.

TCGATTCAGT showed a switch fluorescence ratio of 0.9804 ± 0.0054.

Work on GGGGCCGGTC yielded a switch fluorescence ratio of 1 ± 0.016.

Work on TAGTGCAAGA yielded a switch fluorescence ratio of 1.0334 ± 0.00052.

Sequence TCGGCGGCGG has a switch fluorescence ratio of 0.974 ± 0.027.

With ATTTTTGGCC the switch fluorescence ratio was 1.02 ± 0.035.

Sequence TCTAACTTAG has a switch fluorescence ratio of 1.043 ± 0.0025.

Sequence GAGAGACAGG has a switch fluorescence ratio of 1.014 ± 0.0095.

For CGGCGAGATA, the switch fluorescence ratio was 1.01 ± 0.029.

CATAGGTTGC gave a switch fluorescence ratio of 0.983 ± 0.041.

In the case of TTTGAGGTGG, the switch fluorescence ratio is reported as 1.03 ± 0.043.

CGACCGAACA was tested, and the switch fluorescence ratio was 1.09 ± 0.014.

GCTATAAGGG gave a switch fluorescence ratio of 1 ± 0.036.

Work on GAACAAGGAG yielded a switch fluorescence ratio of 1.03 ± 0.077.

Work on GTTTTAGCCA yielded a switch fluorescence ratio of 0.97 ± 0.013.

TTAAGGCGCT gave a switch fluorescence ratio of 0.976 ± 0.019.

With ATTGCGACAC the switch fluorescence ratio was 1.23 ± 0.035.

AATAGACCTT gave a switch fluorescence ratio of 1.13 ± 0.17.

Work on TTCACTGGTC yielded a switch fluorescence ratio of 1.019 ± 0.0011.

ACATGCAAGC gave a switch fluorescence ratio of 1.64 ± 0.12.

For AACTTGTCGA, the switch fluorescence ratio was 0.886 ± 0.047.

With CGTACATTTA the switch fluorescence ratio was 1.03 ± 0.051.

Sequence GAGGGAGCAG has a switch fluorescence ratio of 1.01 ± 0.017.

For TGGTGCTGGG, the switch fluorescence ratio was 0.9733 ± 0.0066.

TTAGGGAGTC was tested, and the switch fluorescence ratio was 0.992 ± 0.037.

For TAGCGGGAGG, the switch fluorescence ratio was 1.02 ± 0.024.

In the case of TACTCTTTTC, the switch fluorescence ratio is reported as 1.02 ± 0.034.

With GAAGGGTTAC the switch fluorescence ratio was 1.15 ± 0.15.

With AGGTGAAATC the switch fluorescence ratio was 1.26 ± 0.34.

GGCTACAGCG gave a switch fluorescence ratio of 0.987 ± 0.0032.

For TGCGTATTCT, the switch fluorescence ratio was 0.967 ± 0.045.

ATCGAACCTT gave a switch fluorescence ratio of 1.55 ± 0.45.

TGACGTCTGG was tested, and the switch fluorescence ratio was 1.015 ± 0.0071.

CGAGTTAATT showed a switch fluorescence ratio of 1.014 ± 0.0097.

Work on TGGATGTCAG yielded a switch fluorescence ratio of 0.992 ± 0.054.

TAGGTGCCGT gave a switch fluorescence ratio of 1 ± 0.076.

For CGAGGGAATG, the switch fluorescence ratio was 1.1 ± 0.18.

Work on GCCAGTGCTG yielded a switch fluorescence ratio of 1.017 ± 0.0069.

GTTGATCCTT was tested, and the switch fluorescence ratio was 0.9987 ± 0.0075.

In the case of TTCACTGATG, the switch fluorescence ratio is reported as 1.05 ± 0.017.

GTACTGTCTC gave a switch fluorescence ratio of 0.9929 ± 0.0049.

TTTAAGTTTC was tested, and the switch fluorescence ratio was 1 ± 0.025.

GGAGGCCTCG gave a switch fluorescence ratio of 0.982 ± 0.018.

Sequence AGACTCGCCC has a switch fluorescence ratio of 1.12 ± 0.059.

Work on ATTATTTTGG yielded a switch fluorescence ratio of 1.01 ± 0.018.

AAAGAGCGTA showed a switch fluorescence ratio of 1 ± 0.029.

TAGATTGTCT gave a switch fluorescence ratio of 1.01 ± 0.03.

TCAAAGGGCG showed a switch fluorescence ratio of 0.99 ± 0.049.

AGTGGCATGC gave a switch fluorescence ratio of 0.985 ± 0.023.

In the case of CGTTTTTACA, the switch fluorescence ratio is reported as 1 ± 0.015.

With GTGGGGCGGG the switch fluorescence ratio was 0.999 ± 0.02.

For TTGAGAGTTT, the switch fluorescence ratio was 1.04 ± 0.093.

TCGTTAATGA gave a switch fluorescence ratio of 1.02 ± 0.02.

For TGGCAGTCTA, the switch fluorescence ratio was 0.979 ± 0.018.

With AAAAGGGGAG the switch fluorescence ratio was 1.14 ± 0.16.

GTTATCATTA was tested, and the switch fluorescence ratio was 1.02 ± 0.03.

With GTTTTAAGGG the switch fluorescence ratio was 0.99 ± 0.016.

For GGGAGGCGAG, the switch fluorescence ratio was 1.016 ± 0.0011.

GTTATTTGGT was tested, and the switch fluorescence ratio was 0.992 ± 0.04.

For AATAGGGGGA, the switch fluorescence ratio was 1.01 ± 0.034.

Sequence CGTCAAGGTG has a switch fluorescence ratio of 1.42 ± 0.24.

GCTGATACGG gave a switch fluorescence ratio of 1.07 ± 0.027.

In the case of AGGCTCCGAG, the switch fluorescence ratio is reported as 1.03 ± 0.011.

CCGGGGTATT was tested, and the switch fluorescence ratio was 1.07 ± 0.033.

Sequence ATGGTGGCAT has a switch fluorescence ratio of 1.01 ± 0.012.

GCGGAATGGG gave a switch fluorescence ratio of 1.01 ± 0.019.

Work on GATTCTTGTC yielded a switch fluorescence ratio of 1.01 ± 0.035.

For ATGGGGTTTT, the switch fluorescence ratio was 1.01 ± 0.02.

TCATGGTTTT showed a switch fluorescence ratio of 0.977 ± 0.016.

TGCCGGGTTC gave a switch fluorescence ratio of 0.979 ± 0.03.

In the case of ATGCACAGAT, the switch fluorescence ratio is reported as 0.994 ± 0.027.

For TCTAGTAAAT, the switch fluorescence ratio was 1.01 ± 0.015.

GCAACTTATT was tested, and the switch fluorescence ratio was 0.983 ± 0.022.

In the case of TCCTTGCTGT, the switch fluorescence ratio is reported as 1.12 ± 0.095.

For GTCTCTGGGG, the switch fluorescence ratio was 1.08 ± 0.083.

Sequence AAAGTTTTAT has a switch fluorescence ratio of 0.984 ± 0.025.

AGCGGGTAGA was tested, and the switch fluorescence ratio was 0.986 ± 0.02.

TTTTTGTTTG gave a switch fluorescence ratio of 0.985 ± 0.029.

Work on GCGGTGGTTT yielded a switch fluorescence ratio of 0.998 ± 0.017.

AGCGGTATGC gave a switch fluorescence ratio of 0.9804 ± 0.0073.

TTTGGGAGGC was tested, and the switch fluorescence ratio was 1.01 ± 0.034.

CCTAATCAAC was tested, and the switch fluorescence ratio was 1.13 ± 0.034.

Work on ATGAAGACTA yielded a switch fluorescence ratio of 0.9962 ± 0.0014.

GTAAATTAGT was tested, and the switch fluorescence ratio was 1.02 ± 0.04.

TATGGGCGTT was tested, and the switch fluorescence ratio was 1 ± 0.011.

In the case of TTTGGAGGCT, the switch fluorescence ratio is reported as 1.02 ± 0.063.

GAATCCGTTC was tested, and the switch fluorescence ratio was 1.07 ± 0.026.

Sequence TTATAGCAGT has a switch fluorescence ratio of 1.06 ± 0.04.

Sequence GCCGGAGTGG has a switch fluorescence ratio of 0.982 ± 0.024.

CTAGGTCGGC showed a switch fluorescence ratio of 0.994 ± 0.042.

CCAGGTGGCA showed a switch fluorescence ratio of 2.83 ± 0.24.

With TGGATTATTA the switch fluorescence ratio was 1.02 ± 0.014.

With GATAATTGGT the switch fluorescence ratio was 0.998 ± 0.012.

TCATTTGGCA showed a switch fluorescence ratio of 0.983 ± 0.01.

Sequence CATTAATGGG has a switch fluorescence ratio of 1.01 ± 0.019.

For ATGGGCCGAG, the switch fluorescence ratio was 0.989 ± 0.04.

With ACTGATCATG the switch fluorescence ratio was 1.02 ± 0.028.

TCCCGATTGG gave a switch fluorescence ratio of 0.959 ± 0.028.

For GAAGCTGCTT, the switch fluorescence ratio was 0.9908 ± 0.0073.

Work on GGAGCTTTGT yielded a switch fluorescence ratio of 0.98 ± 0.015.

With ATTATATTTA the switch fluorescence ratio was 1.02 ± 0.028.

For GTGGGGTAGT, the switch fluorescence ratio was 0.995 ± 0.018.

CACTTGGTCG showed a switch fluorescence ratio of 1 ± 0.068.

With TGGGACTTGG the switch fluorescence ratio was 1.01 ± 0.018.

GCTGGGCGAT was tested, and the switch fluorescence ratio was 0.961 ± 0.032.

For GTTACTTAGC, the switch fluorescence ratio was 1.04 ± 0.082.

TAGGGGACCG showed a switch fluorescence ratio of 0.991 ± 0.017.

In the case of GCAGTGGGTA, the switch fluorescence ratio is reported as 0.978 ± 0.016.

For TCCGGCGGTT, the switch fluorescence ratio was 1.01 ± 0.04.

For CTTTTATCAC, the switch fluorescence ratio was 1.25 ± 0.43.

In the case of ACGTCAGGGT, the switch fluorescence ratio is reported as 1.0361 ± 0.00046.

TCGGTGGGGA gave a switch fluorescence ratio of 0.992 ± 0.087.

GGTAGGAGAT showed a switch fluorescence ratio of 1.05 ± 0.036.

GGTATGCGGT gave a switch fluorescence ratio of 0.974 ± 0.027.

With ACGCGGTCGG the switch fluorescence ratio was 1.08 ± 0.044.

TGAATGGAAT was tested, and the switch fluorescence ratio was 1.04 ± 0.047.

ATTGATTCTT was tested, and the switch fluorescence ratio was 1.01 ± 0.051.

ACATATAGGG gave a switch fluorescence ratio of 1.04 ± 0.021.

Sequence GTTGATTATG has a switch fluorescence ratio of 0.995 ± 0.014.

Sequence GGTGTTGCGG has a switch fluorescence ratio of 0.98 ± 0.038.

With TAATGTTCTT the switch fluorescence ratio was 1 ± 0.033.

ATCGGCGATT gave a switch fluorescence ratio of 1.04 ± 0.024.

TGACCGAGAA showed a switch fluorescence ratio of 1.06 ± 0.028.

Work on TTTAGTTGTA yielded a switch fluorescence ratio of 1.018 ± 0.0077.

In the case of CTGAATTGGG, the switch fluorescence ratio is reported as 0.999 ± 0.021.

In the case of GACGATTGTG, the switch fluorescence ratio is reported as 0.991 ± 0.07.

AAAATGGAGA showed a switch fluorescence ratio of 0.983 ± 0.029.

Work on ACGACATTTT yielded a switch fluorescence ratio of 1.084 ± 0.0048.

GTTTTTGCTA showed a switch fluorescence ratio of 1.01 ± 0.028.

GGAATAGTTT showed a switch fluorescence ratio of 1.03 ± 0.047.

GGATGAGGGC gave a switch fluorescence ratio of 0.993 ± 0.0099.

Work on GCGTTGGAAA yielded a switch fluorescence ratio of 0.997 ± 0.015.

TTTTGGGAGG showed a switch fluorescence ratio of 1 ± 0.054.

TAACTGGCGT showed a switch fluorescence ratio of 0.991 ± 0.04.

Work on ATATGTGGGT yielded a switch fluorescence ratio of 0.989 ± 0.038.

AAAGTTCGGC showed a switch fluorescence ratio of 1.06 ± 0.024.

With CCGTATATGT the switch fluorescence ratio was 1.19 ± 0.029.

CGTTTGTCGT gave a switch fluorescence ratio of 1.04 ± 0.031.

GGGAAGTCCG gave a switch fluorescence ratio of 0.974 ± 0.03.

With TAGTGGCTTA the switch fluorescence ratio was 0.98 ± 0.042.

GAGGGCAGGG showed a switch fluorescence ratio of 0.978 ± 0.034.

Work on TGCTGGGTGG yielded a switch fluorescence ratio of 1.01 ± 0.02.

Sequence CATGGGGCCT has a switch fluorescence ratio of 0.9984 ± 0.0027.

GTGTGACAAC gave a switch fluorescence ratio of 0.975 ± 0.013.

GAAATCATTA gave a switch fluorescence ratio of 1.016 ± 0.01.

Work on ACGTGCTTTT yielded a switch fluorescence ratio of 0.999 ± 0.018.

TGTTTGGTAA gave a switch fluorescence ratio of 0.981 ± 0.024.

Sequence TTCAGAAAGG has a switch fluorescence ratio of 1 ± 0.023.

With TGGGTGTGGG the switch fluorescence ratio was 1.02 ± 0.028.

In the case of TTAAACCGCT, the switch fluorescence ratio is reported as 1.08 ± 0.053.

TATGGCGCAT showed a switch fluorescence ratio of 0.993 ± 0.043.

In the case of TGTAGCTTGT, the switch fluorescence ratio is reported as 1.09 ± 0.075.

For CGTTTTGTTG, the switch fluorescence ratio was 0.998 ± 0.014.

For TGTATGTCGG, the switch fluorescence ratio was 0.959 ± 0.03.

ATTGCTTATT showed a switch fluorescence ratio of 0.974 ± 0.018.

CATGTAAGGC showed a switch fluorescence ratio of 1.03 ± 0.021.

AGCCTTACGT gave a switch fluorescence ratio of 1.115 ± 0.0039.
